Source: PMC8887487 (Nucleic Acids Research, 2022)

T1: 256–595 domain of Dicer (human, UniProt Q9UPY3 256-595)
T1 sequence: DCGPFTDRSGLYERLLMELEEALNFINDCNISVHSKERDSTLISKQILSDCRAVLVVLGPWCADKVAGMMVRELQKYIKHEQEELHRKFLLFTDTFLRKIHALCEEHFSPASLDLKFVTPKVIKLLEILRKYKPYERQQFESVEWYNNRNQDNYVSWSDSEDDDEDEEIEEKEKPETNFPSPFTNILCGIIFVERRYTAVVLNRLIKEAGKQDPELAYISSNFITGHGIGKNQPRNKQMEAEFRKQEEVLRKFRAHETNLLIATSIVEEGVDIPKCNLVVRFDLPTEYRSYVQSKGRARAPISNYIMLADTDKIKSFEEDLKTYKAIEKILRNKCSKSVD


What was measured:
[1] = biological target: GST (glutathione-S-transferase)-tagged RPAP3 (human, UniProt Q9H6T3 1-665); test: pull-down
256–595 domain of Dicer = biological target: T1, 256–595 domain of Dicer; test: SEC

Sequence of GST (glutathione-S-transferase)-tagged RPAP3 (Q9H6T3 whole entry, the tested form may be a part): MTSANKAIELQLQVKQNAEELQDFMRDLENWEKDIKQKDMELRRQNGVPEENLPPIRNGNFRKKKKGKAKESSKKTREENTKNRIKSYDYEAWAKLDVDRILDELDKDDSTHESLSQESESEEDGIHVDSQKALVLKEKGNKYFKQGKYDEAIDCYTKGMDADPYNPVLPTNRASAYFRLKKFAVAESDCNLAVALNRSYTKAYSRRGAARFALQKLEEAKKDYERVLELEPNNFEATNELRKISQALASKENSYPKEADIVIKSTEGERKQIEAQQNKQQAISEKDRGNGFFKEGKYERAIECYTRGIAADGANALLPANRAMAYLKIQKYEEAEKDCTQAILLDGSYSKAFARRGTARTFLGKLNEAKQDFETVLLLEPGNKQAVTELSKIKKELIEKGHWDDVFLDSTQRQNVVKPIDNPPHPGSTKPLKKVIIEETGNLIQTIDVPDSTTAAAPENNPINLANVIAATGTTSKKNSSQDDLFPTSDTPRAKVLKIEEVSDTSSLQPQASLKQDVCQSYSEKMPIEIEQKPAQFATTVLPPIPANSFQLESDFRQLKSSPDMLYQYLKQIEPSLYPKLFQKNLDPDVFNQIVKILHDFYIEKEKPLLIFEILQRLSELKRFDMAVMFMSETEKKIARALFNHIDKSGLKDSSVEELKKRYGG

binding result [1]	binding result (256–595 domain of Dicer)	Binder
binds	–	His6-tagged TRBP protein (natural protein) MSEEEQGSGTTTGCGLPSIEQMLAANPGKTPISLLQEYGTRIGKTPVYDLLKAEGQAHQPNFTFRVTVGDTSCTGQGPSKKAAKHKAAEVALKHLKGGSMLEPALEDSSSFSPLDSSLPEDIPVFTAAAAATPVPSVVLTRSPPMELQPPVSPQQSECNPVGALQELVVQKGWRLPEYTVTQESGPAHRKEFTMTCRVERFIEIGSGTSKKLAKRNAAAKMLLRVHTVPLDARDGNEVEPDDDHFSIGVGSRLDGLRNRGPGCTWDSLRNSVGEKILSLRSCSLGSLGALGPACCRVLSELSEEQAFHVSYLDIEELSLSGLCQCLVELSTQPATVCHGSATTREAARGEAARRALQYLKIMAGSK
–	binds	TRBP-dsRBD3 (262–366) (domain or fragment) GCTWDSLRNSVGEKILSLRSCSLGSLGALGPACCRVLSELSEEQAFHVSYLDIEELSLSGLCQCLVELSTQPATVCHGSATTREAARGEAARRALQYLKIMAGSK
